Measured values published in US11306156.

Legend:
[1] = biological target: tissue factor (TF) antigen (UniProt P13726); assay: SPR (ProteOn XPR36), His-tagged Fab captured on anti-penta His, TF as analyte; against wild-type D3H44 Fab
[2] = biological target: tissue factor (TF) antigen (UniProt P13726); assay: SPR (ProteOn XPR36), His-tagged Fab captured on anti-penta His, TF as analyte, 1:1 fit
[3] = biological target: tissue factor (TF) antigen (UniProt P13726); assay: SPR (ProteOn XPR36), Fab captured on anti-penta-His surface, TF as analyte, 1:1 fit
[4] = biological target: tissue factor (TF) antigen (UniProt P13726); assay: SPR (ProteOn XPR36), Fab captured on anti-penta-His surface, TF as analyte; reference is the wild-type D3H44 Fab
[5] = biological target: tissue factor (TF) antigen (UniProt P13726); assay: SPR (ProteOn XPR36): His-tagged Fab captured on anti-penta-His surface, TF as analyte, 1:1 fit; batch C (+)
[6] = biological target: tissue factor (TF) antigen (UniProt P13726); assay: SPR, Fab captured on anti-penta-His surface, TF as analyte, 1:1 fit
[7] = biological target: tissue factor (TF) antigen (UniProt P13726); assay: SPR, Fab captured on anti-penta-His surface, TF as analyte, 1:1 fit; against wild-type D3H44 Fab
[8] = biological target: tissue factor (TF) antigen (UniProt P13726); assay: SPR, His-captured Fab, TF as analyte; against wild-type D3H44 Fab
[9] = biological target: tissue factor (TF) antigen (UniProt P13726); assay: SPR, His-captured Fab, TF as analyte, 1:1 fit

Sequence of tissue factor (TF) antigen (P13726 33-251 limits assumed): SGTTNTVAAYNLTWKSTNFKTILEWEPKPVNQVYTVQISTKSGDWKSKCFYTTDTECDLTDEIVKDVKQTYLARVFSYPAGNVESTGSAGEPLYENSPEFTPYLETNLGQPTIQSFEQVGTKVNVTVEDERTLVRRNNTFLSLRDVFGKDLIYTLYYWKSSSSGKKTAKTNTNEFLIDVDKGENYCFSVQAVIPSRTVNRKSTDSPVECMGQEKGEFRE

D3H44 Fab heterodimer, H1 L124E_L143D_K145M / L1 Q124K_V133G_Q160K_S176R (H1L1 Fab of LCCA Set # 9170, 9171 and 9172)
Change in median values of KD of h1|1 Fab heterodimer compared to wild type (-(log(KD design)-log(KD wt))) [1]: -0.24
Kd [2]: 270 pM

D3H44 Fab heterodimer, H1 L143K_D146G / L1 Q124E_V133D (H1L1 Fab of LCCA Set # 9734)
Change in median values of KD of h1|1 Fab heterodimer compared to wild type (-(log(KD design)-log(KD wt))) [1]: -0.22
Kd [2]: 260 pM

D3H44 Fab heterodimer H1L1 of LCCA sets 9257 and 9259 (H1 L124E_L143E_K145M; L1 Q124K_V133G_S176R_T178K)
Kd [3]: 240 pM
Change in median values of KD of h1l1 Fab heterodimer compared to wild type (-(log(KD design)-log(KD wt))) [4]: -0.19

D3H44 H1L1 Fab heterodimer of LCCA set 9632 (H1 L143E_K145T_Q179D; L1 Q124R_T178R)
Change in median values of KD of h1|1 Fab heterodimer compared to wild type (-(log(KD design)-log(KD wt))) [5]: 0.04 log units
Kd [5]: 140 pM

D3H44 Fab heterodimer, H1 D146G_Q179K / L1 Q38E_Q124E_Q160E_T180E (H1L1 Fab of LCCA Set # 9065)
Change in median values of KD of h1|1 Fab heterodimer compared to wild type (-(log(KD design)-log(KD wt))) [1]: -0.05
Kd [2]: 180 pM

D3H44 Fab heterodimer H1L1 of LCCA set 9361 (H1 L124R_D146N_Q179K; L1 V133G_S176D_T178E_T180E)
Kd [3]: 160 pM
Change in median values of KD of h1l1 Fab heterodimer compared to wild type (-(log(KD design)-log(KD wt))) [4]: -0.01

D3H44 H1L1 Fab heterodimer of LCCA Set # 9742 (H1 L143R; L1 Q124E_V133E_Q160M)
Kd [6]: 250 pM
change in median KD compared to wild type, -(log(KD design)-log(KD wt)) [7]: -0.21

D3H44 Fab heterodimer H1L1 of LCCA Set # 9062 and 9063 (H1 A139W_S188L; L1 F116A_L135V)
Change in median values of KD compared to wild type (-(log(KD design)-log(KD wt))) [8]: -0.02 log
Kd [9]: 170 pM

D3H44 Fab heterodimer, H1 L124E_L143E_K145M / L1 Q124K_V133G_Q160K_S176R (H1L1 Fab of LCCA Set # 9248 and 9249)
Change in median values of KD of h1|1 Fab heterodimer compared to wild type (-(log(KD design)-log(KD wt))) [1]: -0.26
Kd [2]: 280 pM

D3H44 Fab heterodimer H1L1 of LCCA Set # 9071 (H1 F174V; L1 S131T_S176F_T178F)
Change in median values of KD compared to wild type (-(log(KD design)-log(KD wt))) [8]: -0.12 log
Kd [9]: 210 pM

D3H44 Fab heterodimer H1L1 of LCCA set 9181 (H1 L124E_L143D_K145M; L1 Q124K_V133G_S176R_T178K)
Kd [3]: 220 pM
Change in median values of KD of h1l1 Fab heterodimer compared to wild type (-(log(KD design)-log(KD wt))) [4]: -0.15

D3H44 Fab heterodimer H1L1 of LCCA Set # 9052, 9051 and 9050 (H1 A139G_F174V_V190A; L1 S131T_L135F_S176F_T178F)
Change in median values of KD compared to wild type (-(log(KD design)-log(KD wt))) [8]: 0.06 log
Kd [9]: 140 pM

D3H44 Fab heterodimer H1L1 of LCCA set 9188 (H1 L124E_L143D_K145M; L1 Q124K_V133G_S176R_T178R)
Kd [3]: 130 pM
Change in median values of KD of h1l1 Fab heterodimer compared to wild type (-(log(KD design)-log(KD wt))) [4]: 0.09

D3H44 Fab heterodimer H1L1 of LCCA sets 9536 and 9526 (H1 L124R_S186R; L1 V133G_S176D_T178D_T180E)
Kd [3]: 170 pM
Change in median values of KD of h1l1 Fab heterodimer compared to wild type (-(log(KD design)-log(KD wt))) [4]: -0.04

D3H44 H1L1 Fab heterodimer of LCCA Set # 9740 (H1 L143R; L1 Q124E_V133E)
Kd [6]: 200 pM
change in median KD compared to wild type, -(log(KD design)-log(KD wt)) [7]: -0.09

D3H44 H1L1 Fab heterodimer of LCCA Set # 9054 (H1 A139G_Q179K_V190A; L1 Q124E_L135W_Q160E_T180E)
Kd [6]: 140 pM
change in median KD compared to wild type, -(log(KD design)-log(KD wt)) [7]: 0.05

D3H44 Fab heterodimer H1L1 of LCCA Set # 9731 (H1 L143K; L1 Q124E_V133D)
Change in median values of KD compared to wild type (-(log(KD design)-log(KD wt))) [8]: -0.26 log
Kd [9]: 280 pM

D3H44 H1L1 Fab heterodimer of LCCA Set # 9111 (H1 L124E_A125S_H172R_K228D; L1 S121K_V133G_S176R)
Kd [6]: 130 pM
change in median KD compared to wild type, -(log(KD design)-log(KD wt)) [7]: 0.09

D3H44 Fab heterodimer H1L1 of LCCA Set # 9769, 9767, 9763, 9759, 9761, 9760 and 9773 (H1 Q179K; L1 Q124E_Q160E_T180E)
Change in median values of KD compared to wild type (-(log(KD design)-log(KD wt))) [8]: -0.31 log
Kd [9]: 320 pM
